This assay deals with HLA-A2.1 (HLA-A*0201) with β2-microglobulin on the surface of T2 cells (human).

Molecule KLGEFYNQMM (modifications not checked) [Influenza B nucleoprotein peptide (aa 85-94), P04665 85-94] gave a Median Channel of Fluorescence of HLA-A2 Expression on T2 (median channel of fluorescence) of 194.

The record behind these values is US20060045884A1, “Vaccines for autoimmune and infectious disease” (Board of Regents, priority 2004, published 2006).
